From patent US20020127229A1, “Tumour therapy” (priority 1996, published 2002)

Key:
[1] = test system: target cells in vitro; details: cited from earlier work
[2] = test system: human colon carcinoma LS174T; parameters: species or system nude mice; details: mouse, in vivo
Experimental: The following figures (FIGS. 2 to 6) illustrate the biodistribution of carboxypeptidase G2 conjugated to PEG in nude mice bearing the human colon carcinoma LS174T. The mice were injected intravenously with the specified amount of enzyme (measured as enzyme units) using 4 mice per time point. Mice were killed at 24 h, 48 h, and 72 h after injection, in some cases at 96 h and 120 h. CPG2 activity in plasma was measured by spectrophotometric assay using methotrexate as the substrate. CPG2 activity in tumour and other tissues was measured by HPLC using methotrexate as the substrate.
The biodistribution of native CPG2 and PEG-CPG2 at 72 hours is illustrated in FIGS. 7 and 8.
FIG. 4(a). Biodistribution of CPG2 activity following use of galactosylated SB43 (clearing antibody). Mice were given CPG2 conjugated to PEG 2000 mwt, average 22 mols PEG per molecule of CPG2, at time 0. Galactosylated monoclonal antibody SB43 was given 19, 20 and 21 hrs later by IP route. The mice were killed at 24 h post CPG2.
In relation to FIG. 4(a) and 4(b) these show good tumour to normal tissue concentration and ratios following use of the clearing antibody. However, it is not possible to administer the clearing antibody as efficiently in the mouse as in the human patient.
I have investigated PEG (mol wt 5000) in the range of 13-32 PEG molecules per enzyme molecule (CPG2, mol wt 83,000); the higher the molecular weight the higher and more prolonged is the plasma concentration of enzyme achieved. The higher the plasma concentration the higher tumour concentration in the tumour model LS174T. Since one objective is to get as much enzyme into the tumour as possible and prolong the period for which an effective concentration of enzyme is sustained in the tumour the conjugate giving the highest concentration of enzyme in blood is preferred. However, the choice of conjugate also has to take account of the need to clear enzyme from blood after the desired concentration of enzyme has been achieved in the tumour(s) and before prodrug is given. A conjugate which is difficult to clear from blood would be disadvantageous so that compromise between these two requirements may be necessary.
Thus, PEG with a molecular weight of 2000 in the range 20 to 40 PEG molecules per molecule of enzyme is preferred, giving a total molecular weight in the range of around 130-160 kDal, but associated water of hydration gives a molecular size equivalent to molecules of much greater weight.

[3] = test system: LS174T tumours; experiment: Tumour growth delay in the LS174T tumour model (MDEPT therapy); assay type: in vivo, nude mice; details: with CPG2 clearance antibody SB43 and the phenol prodrug (25 mg/kg i.p., 3 doses)
Experimental: FIG. 6. Nude mice bearing LS174T tumours were given 25 enzyme units of CPG2-PEG (22 PEG molecules, PEG 5000) followed at 20 hr, 23 h, 26 h by galactosylated SB43. At 48 h post CPG2-PEG they received 25 mg/kg of a phenol prodrug (4-[N,N-bis(2-chloroethyl)amino]-phenoxycarbonyl-L-glutamic acid) intraperiotoneally, repeated to a total of 3 doses at 1 hr intervals.
FIG. 6. Nude mice bearing LS174T tumours were given 25 enzyme units of CPG2-PEG (22 PEG molecules, PEG 5000) followed at 20 hr, 23 h, 26 h by galactosylated SB43. At 48 h post CPG2-PEG they received 25 mg/kg of a phenol prodrug intraperiotoneally, repeated to a total of 3 doses at 1 hr intervals.

## CC(NC(=O)C(CCC(=O)O)NC(=O)c1ccc(N(C)Cc2cnc3nc(N)nc(N)c3n2)cc1)C(=O)O (stereo not drawn) [Alanine methotrexate]
[1]
  toxicity relative to native methotrexate (fold less): 50-100 fold

B1: Native ^125I-CPG2: bacterial enzyme carboxypeptidase G2, not conjugated to PEG (protein, UniProt P06621 23-415, looked up)
Carboxypeptidase G2: ALAQKRDNVLFQAATDEQPAVIKTLEKLVNIETGTGDAEGIAAAGNFLEAELKNLGFTVTRSKSAGLVVGDNIVGKIKGRGGKNLLLMSHMDTVYLKGILAKAPFRVEGDKAYGPGIADDKGGNAVILHTLKLLKEYGVRDYGTITVLFNTDEEKGSFGSRDLIQEEAKLADYVLSFEPTSAGDEKLSLGTSGIAYVQVNITGKASHAGAAPELGVNALVEASDLVLRTMNIDDKAKNLRFNWTIAKAGNVSNIIPASATLNADVRYARNEDFDAAMKTLEERAQQKKLPEADVKVIVTRGRPAFNAGEGGKKLVDKAVAYYKEAGGTLGVEERTGGGTDAAYAALSGKPVIESLGLPGFGYHSDKAEYVDISAIPRRLYMAARLIMDLGAGK
modifications: 125I label
notes: bacterial enzyme carboxypeptidase G2, not conjugated to PEG
[2]
  clearance from blood, tumour and normal tissues: clears rapidly

B2: PEG 5000 at 22 PEGs per CPG2: CPG2 conjugated to PEG 5000, 22 PEG molecules per CPG2 (conjugate, UniProt P06621 23-415, looked up)
Carboxypeptidase G2: ALAQKRDNVLFQAATDEQPAVIKTLEKLVNIETGTGDAEGIAAAGNFLEAELKNLGFTVTRSKSAGLVVGDNIVGKIKGRGGKNLLLMSHMDTVYLKGILAKAPFRVEGDKAYGPGIADDKGGNAVILHTLKLLKEYGVRDYGTITVLFNTDEEKGSFGSRDLIQEEAKLADYVLSFEPTSAGDEKLSLGTSGIAYVQVNITGKASHAGAAPELGVNALVEASDLVLRTMNIDDKAKNLRFNWTIAKAGNVSNIIPASATLNADVRYARNEDFDAAMKTLEERAQQKKLPEADVKVIVTRGRPAFNAGEGGKKLVDKAVAYYKEAGGTLGVEERTGGGTDAAYAALSGKPVIESLGLPGFGYHSDKAEYVDISAIPRRLYMAARLIMDLGAGK
modifications: PEG 5000, 22 per molecule
notes: CPG2 conjugated to PEG 5000, 22 PEG molecules per CPG2
[3]
  tumour growth delay compared to untreated controls: significant growth delay

B3: PEG 2000: CPG2 conjugated to PEG 2000 mwt (average 22-27 PEG molecules per CPG2) (conjugate, UniProt P06621 23-415, looked up)
Carboxypeptidase G2: ALAQKRDNVLFQAATDEQPAVIKTLEKLVNIETGTGDAEGIAAAGNFLEAELKNLGFTVTRSKSAGLVVGDNIVGKIKGRGGKNLLLMSHMDTVYLKGILAKAPFRVEGDKAYGPGIADDKGGNAVILHTLKLLKEYGVRDYGTITVLFNTDEEKGSFGSRDLIQEEAKLADYVLSFEPTSAGDEKLSLGTSGIAYVQVNITGKASHAGAAPELGVNALVEASDLVLRTMNIDDKAKNLRFNWTIAKAGNVSNIIPASATLNADVRYARNEDFDAAMKTLEERAQQKKLPEADVKVIVTRGRPAFNAGEGGKKLVDKAVAYYKEAGGTLGVEERTGGGTDAAYAALSGKPVIESLGLPGFGYHSDKAEYVDISAIPRRLYMAARLIMDLGAGK
modifications: PEG 2000, 22-27 per molecule
[2]
  plasma levels compared with PEG 5000: lower
  tumour concentrations of enzyme compared with PEG 5000: similar

B4: PEG (5000) 32-CPG2: CPG2 conjugated to PEG 5000 mwt, average 32 PEG molecules per molecule of CPG2 (conjugate, UniProt P06621 23-415, looked up)
Carboxypeptidase G2: ALAQKRDNVLFQAATDEQPAVIKTLEKLVNIETGTGDAEGIAAAGNFLEAELKNLGFTVTRSKSAGLVVGDNIVGKIKGRGGKNLLLMSHMDTVYLKGILAKAPFRVEGDKAYGPGIADDKGGNAVILHTLKLLKEYGVRDYGTITVLFNTDEEKGSFGSRDLIQEEAKLADYVLSFEPTSAGDEKLSLGTSGIAYVQVNITGKASHAGAAPELGVNALVEASDLVLRTMNIDDKAKNLRFNWTIAKAGNVSNIIPASATLNADVRYARNEDFDAAMKTLEERAQQKKLPEADVKVIVTRGRPAFNAGEGGKKLVDKAVAYYKEAGGTLGVEERTGGGTDAAYAALSGKPVIESLGLPGFGYHSDKAEYVDISAIPRRLYMAARLIMDLGAGK
modifications: PEG 5000, 32 per molecule
notes: CPG2 conjugated to PEG 5000 mwt, average 32 PEG molecules per molecule of CPG2
[2]
  plasma concentration of enzyme: high and persistent
